According to patent publication US20200131230A1 (published 2020):
Like-named read-outs stand apart in the source and are kept apart here. Positions of bridges follow the written chain, without caps; N, C: chain ends. Non-standard residues stand in square brackets, D forms with d. 2Nal = N[C@@H](Cc1ccc2ccccc2c1)C(=O)O; Phg = N[C@H](C(=O)O)c1ccccc1; Tle = CC(C)(C)[C@H](N)C(=O)O; hCys = N[C@@H](CCS)C(=O)O; Nle = CCCC[C@H](N)C(=O)O; MS = not defined here

Assays:
[1] = molecular target: T1, Thrombospondin human platelet (Calbiochem, 605225) (human, UniProt P07996 19-1170); assay: cell-based or functional assay
[2] = molecular target: T1, Thrombospondin human platelet …; assay: cell-based or functional assay; remark: listed apart in the source
Recombinant-hTSP1 = Recombinant-hTSP1 (human, UniProt P07996 19-1170, limits assumed); assay: SPR (Biacore T200), single-cycle kinetics, recombinant hTSP1 immobilised on NTA chip
Experimental: First, 500 μM NiCl₂ was injected over an NTA-Chip (produced by GE Healthcare, BR100532) at a flow rate of 5 μL/min. for 1 minute to thereby activate NTA groups. Then, an EDC/NHS mixture was injected at a flow rate of 10 μL/min. for 7 minutes to thereby activate the carboxyl groups of dextran. Recombinant-hTSP1 was injected at a flow rate of 10 μL/min. for 7 minutes to immobilize the TSP1 on the substrate surfaces with activated NTA and carboxyl groups. Ethanolamine was injected at a flow rate of 10 μL/min. for 7 minutes to thereby deactivate unreacted, activated carboxyl groups.
Since Biacore T200 is highly responsive to change in DMSO concentrations, DMSO solutions were sequentially injected at concentrations of 4%, 4.4%, 4.8%, 5.2%, 5.6%, and 6% to correct for DMSO effects.
The analysis was conducted using the evaluation software provided with Biacore T100 and T200. A DMSO correction curve obtained by solvent correction measurements was applied for the analysis. Kinetics fitting was done on the difference data obtained by subtracting the baseline data from sample measurement data.

[3] = molecular target: T1, Thrombospondin human platelet …; assay: cell-based or functional assay; remark: listed apart in the source

T1 sequence (P07996 19-1170 limits assumed): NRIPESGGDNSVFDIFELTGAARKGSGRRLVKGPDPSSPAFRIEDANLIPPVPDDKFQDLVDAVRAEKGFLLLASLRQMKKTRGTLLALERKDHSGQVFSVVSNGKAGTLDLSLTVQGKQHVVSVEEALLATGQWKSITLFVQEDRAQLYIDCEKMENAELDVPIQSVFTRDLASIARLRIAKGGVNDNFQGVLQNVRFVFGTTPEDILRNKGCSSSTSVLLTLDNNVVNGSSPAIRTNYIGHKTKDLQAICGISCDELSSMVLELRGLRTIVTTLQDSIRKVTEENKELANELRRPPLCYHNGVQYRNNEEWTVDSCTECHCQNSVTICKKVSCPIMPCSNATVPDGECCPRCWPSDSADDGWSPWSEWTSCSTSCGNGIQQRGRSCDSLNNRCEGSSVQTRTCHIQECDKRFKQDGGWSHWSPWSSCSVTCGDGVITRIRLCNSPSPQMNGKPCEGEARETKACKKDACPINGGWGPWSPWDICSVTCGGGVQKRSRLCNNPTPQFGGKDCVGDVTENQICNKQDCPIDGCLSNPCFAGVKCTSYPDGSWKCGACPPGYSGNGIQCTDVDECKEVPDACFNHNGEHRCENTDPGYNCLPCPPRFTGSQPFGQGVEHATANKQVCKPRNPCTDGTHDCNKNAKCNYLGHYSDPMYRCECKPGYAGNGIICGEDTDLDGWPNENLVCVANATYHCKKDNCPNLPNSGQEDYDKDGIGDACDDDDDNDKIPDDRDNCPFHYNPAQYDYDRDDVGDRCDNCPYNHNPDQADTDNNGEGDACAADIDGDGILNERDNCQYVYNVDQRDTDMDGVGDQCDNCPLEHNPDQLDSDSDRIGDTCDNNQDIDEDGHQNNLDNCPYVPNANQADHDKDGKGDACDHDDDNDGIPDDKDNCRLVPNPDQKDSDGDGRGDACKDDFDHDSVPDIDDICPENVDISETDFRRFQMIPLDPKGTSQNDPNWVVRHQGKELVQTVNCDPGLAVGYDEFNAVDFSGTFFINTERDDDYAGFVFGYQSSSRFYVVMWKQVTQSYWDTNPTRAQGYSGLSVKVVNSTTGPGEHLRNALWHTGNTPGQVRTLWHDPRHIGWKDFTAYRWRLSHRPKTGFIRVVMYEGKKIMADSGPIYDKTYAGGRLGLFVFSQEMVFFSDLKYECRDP
Recombinant-hTSP1, sequence (P07996 19-1170 limits assumed): as above

Binder | Cell adhesion IC50 [1] [nM] | Cell adhesion IC50 [2] [nM] | Kd (Recombinant-hTSP1) [nM] | also measured
{CH2CO}-[2Nal]ISGRN[2Nal]VKWVC-NH2 (thioether N-12; SMILES CC[C@H](C)[C@@H]1NC(=O)[C@H](Cc2ccc3ccccc3c2)NC(=O)CSC[C@@H](C(N)=O)NC(=O)[C@H](C(C)C)NC(=O)[C@H](Cc2c[nH]c3ccccc23)NC(=O)[C@H](CCCCN)NC(=O)[C@H](C(C)C)NC(=O)[C@H](Cc2ccc3ccccc3c2)NC(=O)[C@H](CC(N)=O)NC(=O)[C@H](CCCNC(=N)N)NC(=O)CNC(=O)[C@H](CO)NC1=O) [Compound 28] |  | 29.4 | 0.55 | 
{CH2CO}-[2Nal]ISGRNWVKWVC-NH2 (thioether N-12; SMILES CC[C@H](C)[C@@H]1NC(=O)[C@H](Cc2ccc3ccccc3c2)NC(=O)CSC[C@@H](C(N)=O)NC(=O)[C@H](C(C)C)NC(=O)[C@H](Cc2c[nH]c3ccccc23)NC(=O)[C@H](CCCCN)NC(=O)[C@H](C(C)C)NC(=O)[C@H](Cc2c[nH]c3ccccc23)NC(=O)[C@H](CC(N)=O)NC(=O)[C@H](CCCNC(=N)N)NC(=O)CNC(=O)[C@H](CO)NC1=O) [Compound 24] |  |  | 0.12 | Cell adhesion IC50 [3]: 6.1 nM
{CH2CO}-[2Nal]ISGSNWVKWVC-NH2 (thioether N-12; SMILES CC[C@H](C)[C@@H]1NC(=O)[C@H](Cc2ccc3ccccc3c2)NC(=O)CSC[C@@H](C(N)=O)NC(=O)[C@H](C(C)C)NC(=O)[C@H](Cc2c[nH]c3ccccc23)NC(=O)[C@H](CCCCN)NC(=O)[C@H](C(C)C)NC(=O)[C@H](Cc2c[nH]c3ccccc23)NC(=O)[C@H](CC(N)=O)NC(=O)[C@H](CO)NC(=O)CNC(=O)[C@H](CO)NC1=O) [Compound 44] |  | 30.3 | 0.58 | 
{CH2CO}-[2Nal]ISGKNWVKWVC-NH2 (thioether N-12; SMILES CC[C@H](C)[C@@H]1NC(=O)[C@H](Cc2ccc3ccccc3c2)NC(=O)CSC[C@@H](C(N)=O)NC(=O)[C@H](C(C)C)NC(=O)[C@H](Cc2c[nH]c3ccccc23)NC(=O)[C@H](CCCCN)NC(=O)[C@H](C(C)C)NC(=O)[C@H](Cc2c[nH]c3ccccc23)NC(=O)[C@H](CC(N)=O)NC(=O)[C@H](CCCCN)NC(=O)CNC(=O)[C@H](CO)NC1=O) [Compound 43] |  | 9.2 | 0.13 | 
{CH2CO}-[2Nal]ISGRNWVHWVC-NH2 (thioether N-12; SMILES CC[C@H](C)[C@@H]1NC(=O)[C@H](Cc2ccc3ccccc3c2)NC(=O)CSC[C@@H](C(N)=O)NC(=O)[C@H](C(C)C)NC(=O)[C@H](Cc2c[nH]c3ccccc23)NC(=O)[C@H](Cc2c[nH]cn2)NC(=O)[C@H](C(C)C)NC(=O)[C@H](Cc2c[nH]c3ccccc23)NC(=O)[C@H](CC(N)=O)NC(=O)[C@H](CCCNC(=N)N)NC(=O)CNC(=O)[C@H](CO)NC1=O) [Compound 41] |  | 16.4 | 0.37 | 
{CH2CO}-[2Nal]ISGHNWVKWVC-NH2 (thioether N-12; SMILES CC[C@H](C)[C@@H]1NC(=O)[C@H](Cc2ccc3ccccc3c2)NC(=O)CSC[C@@H](C(N)=O)NC(=O)[C@H](C(C)C)NC(=O)[C@H](Cc2c[nH]c3ccccc23)NC(=O)[C@H](CCCCN)NC(=O)[C@H](C(C)C)NC(=O)[C@H](Cc2c[nH]c3ccccc23)NC(=O)[C@H](CC(N)=O)NC(=O)[C@H](Cc2c[nH]cn2)NC(=O)CNC(=O)[C@H](CO)NC1=O) [Compound 42] |  | 32 | 0.44 | 

Second part, led by results:

Cell adhesion IC50 [1] [nM] | Cell adhesion IC50 [2] [nM] | Kd (Recombinant-hTSP1) [nM] | Binder | also measured
19.5 |  |  | {CH2CO}-[2Nal]ISGRNWVKWV[hCys]-NH2 (thioether N-12; SMILES CC[C@H](C)[C@@H]1NC(=O)[C@H](Cc2ccc3ccccc3c2)NC(=O)CSCC[C@@H](C(N)=O)NC(=O)[C@H](C(C)C)NC(=O)[C@H](Cc2c[nH]c3ccccc23)NC(=O)[C@H](CCCCN)NC(=O)[C@H](C(C)C)NC(=O)[C@H](Cc2c[nH]c3ccccc23)NC(=O)[C@H](CC(N)=O)NC(=O)[C@H](CCCNC(=N)N)NC(=O)CNC(=O)[C@H](CO)NC1=O) [Compound 54] | 
30.6 |  |  | {CH2CO}-FISGRNWVTWVC-NH2 (thioether N-12; SMILES CC[C@H](C)[C@@H]1NC(=O)[C@H](Cc2ccccc2)NC(=O)CSC[C@@H](C(N)=O)NC(=O)[C@H](C(C)C)NC(=O)[C@H](Cc2c[nH]c3ccccc23)NC(=O)[C@H]([C@@H](C)O)NC(=O)[C@H](C(C)C)NC(=O)[C@H](Cc2c[nH]c3ccccc23)NC(=O)[C@H](CC(N)=O)NC(=O)[C@H](CCCNC(=N)N)NC(=O)CNC(=O)[C@H](CO)NC1=O) [Compound 65] | 
15.9 |  |  | {CH2CO}-[2Nal]ISGRNWVKW[Tle]C-NH2 (thioether N-12; SMILES CC[C@H](C)[C@@H]1NC(=O)[C@H](Cc2ccc3ccccc3c2)NC(=O)CSC[C@@H](C(N)=O)NC(=O)[C@H](C(C)(C)C)NC(=O)[C@H](Cc2c[nH]c3ccccc23)NC(=O)[C@H](CCCCN)NC(=O)[C@H](C(C)C)NC(=O)[C@H](Cc2c[nH]c3ccccc23)NC(=O)[C@H](CC(N)=O)NC(=O)[C@H](CCCNC(=N)N)NC(=O)CNC(=O)[C@H](CO)NC1=O) [Compound 53] | 
15.6 |  |  | {CH2CO}-[2Nal]ISGKDW[Nle]KWVC-NH2 (thioether N-12; SMILES CCCC[C@@H]1NC(=O)[C@H](Cc2c[nH]c3ccccc23)NC(=O)[C@H](CC(=O)O)NC(=O)[C@H](CCCCN)NC(=O)CNC(=O)[C@H](CO)NC(=O)[C@H]([C@@H](C)CC)NC(=O)[C@H](Cc2ccc3ccccc3c2)NC(=O)CSC[C@@H](C(N)=O)NC(=O)[C@H](C(C)C)NC(=O)[C@H](Cc2c[nH]c3ccccc23)NC(=O)[C@H](CCCCN)NC1=O) [Compound 57] | 
20.7 |  |  | {CH2CO}-[2Nal]ISGHNW[Nle]KWVC-NH2 (thioether N-12; SMILES CCCC[C@@H]1NC(=O)[C@H](Cc2c[nH]c3ccccc23)NC(=O)[C@H](CC(N)=O)NC(=O)[C@H](Cc2c[nH]cn2)NC(=O)CNC(=O)[C@H](CO)NC(=O)[C@H]([C@@H](C)CC)NC(=O)[C@H](Cc2ccc3ccccc3c2)NC(=O)CSC[C@@H](C(N)=O)NC(=O)[C@H](C(C)C)NC(=O)[C@H](Cc2c[nH]c3ccccc23)NC(=O)[C@H](CCCCN)NC1=O) [Compound 59] | 
10.3 |  |  | {CH2CO}-[2Nal]ISGRNWVKW[Phg]C-NH2 (thioether N-12; SMILES CC[C@H](C)[C@@H]1NC(=O)[C@H](Cc2ccc3ccccc3c2)NC(=O)CSC[C@@H](C(N)=O)NC(=O)[C@H](c2ccccc2)NC(=O)[C@H](Cc2c[nH]c3ccccc23)NC(=O)[C@H](CCCCN)NC(=O)[C@H](C(C)C)NC(=O)[C@H](Cc2c[nH]c3ccccc23)NC(=O)[C@H](CC(N)=O)NC(=O)[C@H](CCCNC(=N)N)NC(=O)CNC(=O)[C@H](CO)NC1=O) [Compound 52] | 
13.2 |  |  | {CH2CO}-[2Nal]ISGKN[2Nal]VKWVC-NH2 (thioether N-12; SMILES CC[C@H](C)[C@@H]1NC(=O)[C@H](Cc2ccc3ccccc3c2)NC(=O)CSC[C@@H](C(N)=O)NC(=O)[C@H](C(C)C)NC(=O)[C@H](Cc2c[nH]c3ccccc23)NC(=O)[C@H](CCCCN)NC(=O)[C@H](C(C)C)NC(=O)[C@H](Cc2ccc3ccccc3c2)NC(=O)[C@H](CC(N)=O)NC(=O)[C@H](CCCCN)NC(=O)CNC(=O)[C@H](CO)NC1=O) [Compound 56] | 
12.7 |  |  | {CH2CO}-[2Nal]ISG[MS]DW[Nle]KWVC-NH2 (thioether N-12; reading uncertain) [Compound 67] | 
16 |  |  | {CH2CO}-[2Nal]ISGRNW[Phg]KWVC-NH2 (thioether N-12; SMILES CC[C@H](C)[C@@H]1NC(=O)[C@H](Cc2ccc3ccccc3c2)NC(=O)CSC[C@@H](C(N)=O)NC(=O)[C@H](C(C)C)NC(=O)[C@H](Cc2c[nH]c3ccccc23)NC(=O)[C@H](CCCCN)NC(=O)[C@H](c2ccccc2)NC(=O)[C@H](Cc2c[nH]c3ccccc23)NC(=O)[C@H](CC(N)=O)NC(=O)[C@H](CCCNC(=N)N)NC(=O)CNC(=O)[C@H](CO)NC1=O) [Compound 51] | 
33.8 |  |  | {CH2CO}-FISGKNWVSWVC-NH2 (thioether N-12; SMILES CC[C@H](C)[C@@H]1NC(=O)[C@H](Cc2ccccc2)NC(=O)CSC[C@@H](C(N)=O)NC(=O)[C@H](C(C)C)NC(=O)[C@H](Cc2c[nH]c3ccccc23)NC(=O)[C@H](CO)NC(=O)[C@H](C(C)C)NC(=O)[C@H](Cc2c[nH]c3ccccc23)NC(=O)[C@H](CC(N)=O)NC(=O)[C@H](CCCCN)NC(=O)CNC(=O)[C@H](CO)NC1=O) [Compound 66] | 
